Earlier results, collected in patent US20230149374A1, “METHODS AND COMPOSITIONS FOR TREATING ATHEROSCLEROSIS” (Sanford Burnham Prebys Medical Discovery Institute, priority 2021, published 2023).

Tested on: patient with TNAP deficiency
Conditions: administration for 8 months, very high blood TNAP activity; cited from earlier work

B1: recombinant TNAP: recombinant TNAP administered for 8 months in a patient with TNAP deficiency (protein, UniProt P05186 18-501, looked up)
Alkaline phosphatase, …: LVPEKEKDPKYWRDQAQETLKYALELQKLNTNVAKNVIMFLGDGMGVSTVTAARILKGQLHHNPGEETRLEMDKFPFVALSKTYNTNAQVPDSAGTATAYLCGVKANEGTVGVSAATERSRCNTTQGNEVTSILRWAKDAGKSVGIVTTTRVNHATPSAAYAHSADRDWYSDNEMPPEALSQGCKDIAYQLMHNIRDIDVIMGGGRKYMYPKNKTDVEYESDEKARGTRLDGLDLVDTWKSFKPRYKHSHFIWNRTELLTLDPHNVDYLLGLFEPGDMQYELNRNNVTDPSLSEMVVVAIQILRKNPKGFFLLVEGGRIDHGHHEGKAKQALHEAVEMDRAIGQAGSLTSSEDTLTVVTADHSHVFTFGGYTPRGNSIFGLAPMLSDTDKKPFTAILYGNGPGYKVVGGERENVSMVDYAHNNYQAQSAVPLRHETHGGEDVAVFSKGPMAHLLHGVHEQNYVPHVMAYAACIGANLGHCAPAS
vascular calcium score: did not increase
